Key:
Type in all cases: cell-based, human
[1] = tested on: Firefly Luciferase driven by CMV/2B promoter in HEK293T cells; assay: CMV/2B promoter repression by VPR-dCas9-N8 and gRNA_B, Luc assay (Example 12); conditions: VPR-dCas9-N8 with gRNA_B vs scramble gRNA_AB
Description: Luciferase assay. The cells were collected 48 hours after transfection and lysed with 25 μL of 5×Passive Lysis Buffer ([…]) diluted in water. Firefly Luciferase and Renilla Luciferase expression were measured using the Dual Luciferase Assay (Promega) on a Glomax Explorer plate reader (Promega). Firefly Luciferase Arbitrary Units (fLuc [A.U.]) were calculated by normalizing each sample's Firefly Luciferase activity to the constitutive Renilla activity detected in the same sample. Relative fLuc [A.U.] values have been calculated by dividing each sample's Firefly Luciferase Arbitrary Units by the Firefly Luciferase Arbitrary Units of the sample with no Doxycycline induction, in the case of Doxycycline dose-response curves. In the case of Shield1 treatment, Relative fLuc [A.U.] values have been obtained by dividing each sample's Firefly Luciferase Arbitrary Units by the Firefly Luciferase Arbitrary Units of the sample treated with the maximum dose of Shield1 used, 1000 nM. Regarding experiments comprising Gaussia Luciferase and RedFireFly Luciferase, cells expressing those luciferases were harvested 48 h after transfection. Cells were disrupted with 100 μL/well of 1×Cell Lysis buffer and shaken for 15 min. Luciferase activity was measured using Pierce™ Gaussia-Firefly Luciferase Dual Assay Kit (ThermoFisher Scientific) according to the manufacturer's instructions. […]

[2] = tested on: mCherry expression in HEK293T cells; assay: pCMV/TO repression by rtTA-VPR, mCherry positive cells by flow cytometry (Example 1); conditions: presence of doxycycline (1000 ng/ml), rtTA-VPR co-transfected
Description: Flow Cytometry. Cells were collected 48 hours after transfection, washed and resuspended with PBS (Euroclone). Flow Cytometry analysis were carried out using an Accuri C6 (BD Biosciences), analyzing 10000 cells for each sample. A 488-nm laser with a 670 nm LP filter were used to excite and detect mCherry fluorescence.
HEK293T cells were transfected with a plasmid encoding the pCMV/TO promoter driving the expression of the fluorescent protein mCherry, and with a plasmid encoding the rtTA-VPR transcription factor driven by the strong constitutive pCMV promoter. A condition treated in the same way but without rtTA-VPR transfection was used as a negative control to account for any doxycycline treatment bias on mCherry expression. The percentage of mCherry positive cells was quantified through flow cytometry analysis in the absence and presence (1000 ng/ml) of doxycycline. The results of this experiment are shown in FIG. 3, where it can be appreciated that pCMV/TO efficiently represses the expression of the mCherry almost 25 times at the transcriptional level in the presence of doxycycline. pCMV/TO is efficiently repressed by the rtTA-VPR in the presence of doxycycline. Percentual mean values of at least three biological replicates are shown. Error bars indicate standard error.

[3] = tested on: Gaussia Luciferase (gLuc) transcripts in HEK293 cells; assay: Mutual inhibition CasRx / gLuc transcripts with no, one or four DR (Example 13)
Description: In order to confirm the mechanism of inhibition mediated by the output species “Z” on the repressor species “Y” in genetic circuits according to preferred embodiments of the invention, HEK293 cells were co-transfected with CasRx endoribonuclease (species Y) and Gaussia Luciferase (gLuc) transcripts, the latter bearing in the 3′UTR either no Direct Repeat (DR), one DR, or four tandem DR motifs (4×DRs). The hypothesis tested was that upon CasRx binding, only one DR motifs would effectively contribute to transcript cleavage and subsequent degradation. Therefore, in transcripts bearing multiple DR motifs, the remaining DR motifs, not contributing to transcript cleavage, would act as decoys, sequestering active CasRx from the unbound pool. As a result, the CasRx repression efficacy on gLuc expression should decrease.
The luciferase emission of each sample was measured to quantify the expression of the gLuc at increasing amounts of co-transfected plasmid encoding the CasRx. […] (FIG. 25). Increasing the amount of DR copies in the 3′UTR thus enhances the “sponge” effect, inhibiting the cleavage efficacy of CasRx.

[4] = tested on: Gaussia luciferase transcript harboring a Direct Repeat in its 3′UTR, HEK293T cells; assay: CasRx repression of Gaussia luciferase reporter with or without Direct Repeat (Example 2)
Description: Luciferase assay. The cells were collected 48 hours after transfection and lysed with 25 μL of 5×Passive Lysis Buffer ([…]) diluted in water. Firefly Luciferase and Renilla Luciferase expression were measured using the Dual Luciferase Assay (Promega) on a Glomax Explorer plate reader (Promega). Firefly Luciferase Arbitrary Units (fLuc [A.U.]) were calculated by normalizing each sample's Firefly Luciferase activity to the constitutive Renilla activity detected in the same sample. Relative fLuc [A.U.] values have been calculated by dividing each sample's Firefly Luciferase Arbitrary Units by the Firefly Luciferase Arbitrary Units of the sample with no Doxycycline induction, in the case of Doxycycline dose-response curves. […] Luciferase activity was measured using Pierce™ Gaussia-Firefly Luciferase Dual Assay Kit (ThermoFisher Scientific) according to the manufacturer's instructions.
The findings of Example 1 were further confirmed by transfecting HEK293T cells with an increasing molar ratio of a plasmid encoding a Gaussia luciferase reporter gene, with or without Direct Repeats in its 3′UTR and a plasmid encoding the CasRx endoribonuclease. […] At least, three biological replicates were analyzed for each condition. Relative gLuc A.U. is calculated as the ratio between the gLuc A.U. values obtained transfecting the CasRx against the one which wasn't; this last corresponds to 1 gLuc A.U.

B1: CMV/2B: CMV promoter with gRNA_B binding sites downstream of the TATA box, repressed by VPR-dCas9-N8, SEQ ID NO: 48 (nucleic acid)
DNA: CGTTACATAACTTACGGTAAATGGCCCGCCTGGCTGACCGCCCAACGACCCCCGCCCATTGACGTCAATAATGACGTATGTTCCCATAGTAACGCCAATAGGGACTTTCCATTGACGTCAATGGGTGGAGTATTTACGGTAAACTGCCCACTTGGCAGTACATCAAGTGTATCATATGCCAAGTACGCCCCCTATTGACGTCAATGACGGTAAATGGCCCGCCTGGCATTATGCCCAGTACATGACCTTATGGGACTTTCCTACTTGGCAGTACATCTACGTATTAGTCATCGCTATTACCATGGTGATGCGGTTTTGGCAGTACATCAATGGGCGTGGATAGCGGTTTGACTCACGGGGATTTCCAAGTCTCCACCCCATTGACGTCAATGGGAGTTTGTTTTGGCACCAAAATCAACGGGACTTTCCAAAATGTCGTAACAACTCCGCCCCATTGACGCAAATGGGCGGTAGGCGTGTACGGTGGGAGGTCTATATAAGCAGAGCTGCCGTCTTCCGTTTCCACATCTTCACGGATACCAAGGTGGCACCGGTTTGATTGCACAGCCCGTCTTCCGTTTCCACATCTTCACGG
- percentage of repression of the CMV/2B [1]: around 60%

B2: pCMV/TO: modified CMV promoter bearing two Tetracycline Operon (TO) sequences, SEQ ID NO: 8 (nucleic acid)
DNA: CGTTACATAACTTACGGTAAATGGCCCGCCTGGCTGACCGCCCAACGACCCCCGCCCATTGACGTCAATAATGACGTATGTTCCCATAGTAACGCCAATAGGGACTTTCCATTGACGTCAATGGGTGGAGTATTTACGGTAAACTGCCCACTTGGCAGTACATCAAGTGTATCATATGCCAAGTACGCCCCCTATTGACGTCAATGACGGTAAATGGCCCGCCTGGCATTATGCCCAGTACATGACCTTATGGGACTTTCCTACTTGGCAGTACATCTACGTATTAGTCATCGCTATTACCATGGTGATGCGGTTTTGGCAGTACATCAATGGGCGTGGATAGCGGTTTGACTCACGGGGATTTCCAAGTCTCCACCCCATTGACGTCAATGGGAGTTTGTTTTGGCACCAAAATCAACGGGACTTTCCAAAATGTCGTAACAACTCCGCCCCATTGACGCAAATGGGCGGTAGGCGTGTACGGTGGGAGGTCTATATAAGCAGAGCTCTCCCTATCAGTGATAGAGATCTCCCTATCAGTGATAGAGA
- repression of mCherry expression [2]: ~25 times

B3: CasRx: CRISPR-Cas RNase derived from Ruminococcus flavefaciens, SEQ ID NO: 2 (protein)
chain: IEKKKSFAKGMGVKSTLVSGSKVYMTTFAEGSDARLEKIVEGDSIRSVNEGEAFSAEMADKNAGYKIGNAKFSHPKGYAVVANNPLYTGPVQQDMLGLKETLEKRYFGESADGNDNICIQVIHNILDIEKILAEYITNAAYAVNNISGLDKDIIGFGKFSTVYTYDEFKDPEHHRAAFNNNDKLINAIKAQYDEFDNFLDNPRLGYFGQAFFSKEGRNYIINYGNECYDILALLSGLRHWVVHNNEEESRISRTWLYNLDKNLDNEYISTLNYLYDRITNELTNSFSKNSAANVNYIAETLGINPAEFAEQYFRFSIMKEQKNLGFNITKLREVMLDRKDMSEIRKNHKVFDSIRTKVYTMMDFVIYRYYIEEDAKVAAANKSLPDNEKSLSEKDIFVINLRGSFNDDQKDALYYDEANRIWRKLENIMHNIKEFRGNKTREYKKKDAPRLPRILPAGRDVSAFSKLMYALTMFLDGKEINDLLTTLINKFDNIQSFLKVMPLIGVNAKFVEEYAFFKDSAKIADELRLIKSFARMGEPIADARRAMYIDAIRILGTNLSYDELKALADTFSLDENGNKLKKGKHGMRNFIINNVISNKRFHYLIRYGDPAHLHEIAKNEAVVKFVLGRIADIQKKQGQNGKNQIDRYYETCIGKDKGKSVSEKVDALTKIITGMNYDQFDKKRSVIEDTGRENAEREKFKKIISLYLTVIYHILKNIVNINARYVIGFHCVERDAQLYKEKGYDINLKKLEEKGFSSVTKLCAGIDETAPDKRKDVEKEMAERAKESIDSLESANPKLYANYIKYSDEKKAEEFTRQINREKAKTALNAYLRNTKWNVIIREDLLRIDNKTCTLFRNKAVHLEVARYVHAYINDIAEVNSYFQLYHYIMQRIIMNERYEKSSGKVSEYFDAVNDEKKYNDRLLKLLCVPFGYCIPRFKNLSIEALFDRNEAAKFDKEKKKVSGNS
- decrease of gLuc expression ([3]; transcript having one DR, increasing amount of co-transfected CasRx): ~2 log
- luciferase values ([3]; transcript with 4×DRs, presence of CasRx): higher luciferase values in the presence of CasRx compared to a single DR
- post-transcriptional inhibition of luciferase expression ([4]; 10 times molar excess of CasRx): ~200 folds
- expression of Gaussia luciferase with DR in 3′UTR ([4]; equimolar amount of plasmid encoding CasRx, relative to no CasRx): 5%
